This is an account of results in patent publication US20160200799A1.

Assay in all cases: cell-based or functional assay
Test [1] concerns the target Influenza virus A/Suita/1/2009pdm (H1N1 2009 pandemic) (Influenza A virus A/Suita/1/2009pdm (H1N1pdm)).
The target in test [2] is Influenza virus A/Indonesia/5/2005/PR8-IBCDC-RG2 (H5N1) (Influenza A virus A/Indonesia/5/2005/PR8-IBCDC-RG2 (H5N1)).
Test [3] has as its target Influenza virus A/Brisbane/59/2007 (H1N1) (Influenza A virus A/Brisbane/59/2007 (H1N1)).
The target in test [4] is Influenza virus A/Panama/2007/1999 (H3N2) (Influenza A virus A/Panama/2007/1999 (H3N2)).
For test [5], the target named is Influenza virus A/California/7/2009pdm (H1N1pdm) (Influenza A virus A/California/7/2009pdm (H1N1pdm)).

B1: Group 38 representative clone F082-338, Fab-PP-type antibody (Fab, V domains shown)
VH: QVQLQESGAEVKKPGSSVKVSCKASGGPFRSHAISWVRQAAGQGLEWMGGITAVFGTANYAQKFQGRVTITADESTNIVSMELSSLRSEDTAIYYCARSLGYHTQYNGMDVWGQGTTVTVSS
VL: DVVMTQSPSSVSASVGDRVTITCRASQGISSWLAWYQQKPGKAPKLLIYAASSLQSGVPSRFSGSGSGTDFTLTISSLQPEDFATYYCQQANSFPITFGQGTRLEIK
On to B1, for which the Neutralizing activity (%) at 100 µg/ml was 100% in test [1], 67.1% in test [2], 100% in test [3] and -2.7% in test [4]. The Neutralizing activity (%) at 250 µg/ml in test [1] was 97.7%; in test [2], 85.3%; in test [3], 100%; in test [4], -0.7%. Moreover, the HI activity in test [3] and in test [5] was greater than 160 µg/mL in each case.

B2: Group 63 representative clone F083-336, Fab-PP-type antibody (Fab, V domains shown)
VH: QVQLQQSGAEVKQPGSSVKVSCKASGGIFRSNAISWVRQAPGQGLEWMGGIVALFGTANYAQKFQGRVTITADESTSTVYMELSSLRSEDTARYYCARNSGYHISGFYLDYWGQGTLVTVSS
VL: EIVLTQSPSSLSASVGDRVTITCRASQGISNYLAWYQQRPGKVPKLLIYTASTLLSGVPSRFSGGGSGTDYTLTISSLQPEDVATYYCQEYKSVPLTFGPGTKVEIK
Take B2: the Neutralizing activity (%) at 100 µg/ml in test [1] was 100%; in test [2] it was 98.8%; in test [3], 100%; in test [4], -11%. The Neutralizing activity (%) at 250 µg/ml in test [1] is 100%; in test [2], 100%; in test [3], 100%; in test [4] it was -8.9%. Moreover, the HI activity in test [3] and in test [5] was greater than 160 µg/mL throughout.

B3: Group 44 representative clone F081-008, Fab-PP-type antibody (Fab, V domains shown)
VH: QVQLVQSGAEVKKPGSSVKVSCKASGGTFSSFSTYTISWVRQAPGQGLEWMGRSIPLLGITNYAQKFQGRVTITADISTSTAYMELSSLRSEDTAVYYCARYQSSDYYNSEYFQHWGQGTLVTVSS
VL: EIVLTQSPGTLSLSLGERVTLSCRASQNVGTNYLAWYQQKPGQAPRLLIYGASSRATGVPDRFSGSGSGTDFTLTISRLAPEDFAVYYCQQYSSSPLTFGGGTKLEIK
Turning to B3, the Neutralizing activity (%) at 100 µg/ml was 95.3% in test [1], 48.8% in test [2], 100% in test [3] and 3.4% in test [4]. Besides, the Neutralizing activity (%) at 250 µg/ml was 97.7% in test [1], 56.5% in test [2], 100% in test [3] and 15.8% in test [4]. Also, the HI activity in test [3] and in test [5] was greater than 160 µg/mL throughout.

B4: Group 65 representative clone F083-366, Fab-PP-type antibody (Fab, V domains shown)
VH: QVQLVQSGSEVKKPGSSVKVSCKASRGIFSSYAISWVRQAPGQGLEWMGAVIPMFGTLKYAENFQGRITISADKSMSAAYMELSSLRSEDTAVYYCARNYYGSGTYFNDAFDIWGQGTMVTVSS
VL: QSVLTQPPSGSGAPGQRVTISCTGGNSNIGAGYDVNGYQQLPGKAPKLLIYGNNNRPSGVPDRFSGSKSGTSASLAITGLQVEDEAHYYCQSYDNGLSGSVFGGGTQLTVLG
As to B4, the Neutralizing activity (%) at 100 µg/ml in test [1] is 13.5%; in test [2] it was -0.8%; in test [3], 96.1%; in test [4] it was -13%. Besides, the Neutralizing activity (%) at 250 µg/ml in test [1] is 19.2%; in test [2], -3.9%; in test [3], 98%; in test [4], -6.8%. Moreover, the HI activity in test [3] and in test [5] was greater than 160 µg/mL throughout.

B5: Group 80 representative clone F083-373, Fab-PP-type antibody (Fab, V domains shown)
VH: QVQLVQSGADVKKPGSSVRVSCKASGRTFGNYAISWVRQAPGQGLEWMGGITPIFGAANYAQKFQGRVTISADLSTTMVYMDLSSLRSDDTAFYYCAGHPTYYYGSPMDYWGQGTLVTVSS
VL: EIVLTQSPSSLSASVGDRVTITCRASQSIATYLNWYQQKPGKAPNLLIYAASNLQSGVPSRFSGSGSGTDFTLTISSLQPEDFATYVCLQSYSATLTFGGGTKVEIK
For B5, the Neutralizing activity (%) at 100 µg/ml was 1.9% in test [1], -3.3% in test [2], 70.4% in test [3] and -6.9% in test [4]. Moreover, the Neutralizing activity (%) at 250 µg/ml is 7.7% in test [1], 15.4% in test [2], 74.3% in test [3] and -21.2% in test [4]. Moreover, the HI activity in test [3] and in test [5] was greater than 160 µg/mL each time.

B6: Group 59 representative clone F083-351, Fab-PP-type antibody (Fab, V domains shown)
VH: QVQLVQSGADVKKAGSSVKVSCKASGRTFGNYAISWVRQAPGQGLEWMGGITPIFGAANYAQKFQGRVTISADLSTRMVYMDLSSLRSDDTAFYYCAGHPMYHYGSAMDYWGQGTLVTVSS
VL: QSVLTQPPSASGTPGQRVSISCFGSRSNVGSSSVNWYQQLPGRAPKLLIQRNDQRPSGVPDRFSGSKSGTSASLAISGLQSDDESTYYCAAWDDSVKSVVFGGGTQLTVLG
In the case of B6, the Neutralizing activity (%) at 100 µg/ml in test [1] is 88.5%; in test [2], -2.7%; in test [3], 100%; in test [4], -6.8%. The Neutralizing activity (%) at 250 µg/ml in test [1] was 85.6%; in test [2] it was 5.4%; in test [3], 100%; in test [4], -6.6%. For the same molecule, the HI activity in test [3] and in test [5] was greater than 160 µg/mL throughout.

B7: Group 51 representative clone F083-302, Fab-PP-type antibody (Fab, V domains shown)
VH: QVQLVQSGAEVKKPGSSVKVSCEASGATFSSNAFSWVRQAPGQGPEWMGGIITMFRKAEYAQKFQGRVTITAGELGSTAYMEVRSLTFEDTAVYYCARHSGYHLIGYFDSWGQGTLVTVSS
VL: QSVLTQPPSVSAAPGQKVTISCSGTTSNIGNNYVSWYQQLPGAAPKLLIYDNNKRPSGIPDRFSGSKSDTSATLGITGLQTGDEADYYCGTWVSSLSVWVFGGGTKLTVLG
With B7, the Neutralizing activity (%) at 100 µg/ml was 100% in test [1], 72.9% in test [2], 98% in test [3] and 3.4% in test [4]. The Neutralizing activity (%) at 250 µg/ml in test [1] is 100%; in test [2], 85.9%; in test [3], 98%; in test [4], -11%. The HI activity in test [3] and in test [5] was greater than 160 µg/mL in each case.

B8: Group 43 representative clone F081-007, Fab-PP-type antibody (Fab, V domains shown)
VH: QVQLQQSGAEVKKPGSSVKVSCKASGGIFRKNAISWVRQAPGQGLEWMGGISAIFGTANYAQKFQGRVTITADESSNTVYMDLSRLRSEDTAIYYCASHPTYHFDKSGYRFDSWGQGTLVTVSS
VL: QSVLTQPPSVSAAPGQKVTISCSGSSSNIGNNYVSWYQQLPGTAPKLLIYDNNKRPSGIPDRFSGSKSGTSATLGITGLQTGDEADYYCGTWDSSLSAGVFGGGTKLTVLG
As to B8, the Neutralizing activity (%) at 100 µg/ml in test [1] came out at 100%; in test [2], 97.6%; in test [3], 100%; in test [4] it was 11.6%. Also, the Neutralizing activity (%) at 250 µg/ml in test [1] was 100%; in test [2] it was 98.8%; in test [3], 100%; in test [4], 13.7%. The HI activity in test [3] and in test [5] was greater than 160 µg/mL each time.

B9: Group 64 representative clone F083-301, Fab-PP-type antibody (Fab, V domains shown)
VH: QVQLVQSGAEVKKPGSSVKVSCKASGGIFNSNAISWVRQAPGQGLEWMGGIIGIFGTANYAQKFQGRVTIAADQSTNTVFMELSSLTSEDTAVYFCARSRGYSFGYGTDYFDYWGQGTLVTVSS
VL: DIVMTQSPSTLSASVGDRVTITCRASQSISSWLAWYQQAPGKAPKLLIYEASKLQSGVPSRFSATGSGTEFTLTIASLQPEDFAIYYCQHYEAYPFSFGPGTKLDVK
As for B9, the Neutralizing activity (%) at 100 µg/ml in test [1] is 83.6%; in test [2], 40.6%; in test [3], 86.2%; in test [4] it was -2.7%. In addition, the Neutralizing activity (%) at 250 µg/ml in test [1] was 81.3%; in test [2], 47.1%; in test [3] it was 92.1%; in test [4], 7.5%. Moreover, the HI activity in test [3] and in test [5] was greater than 160 µg/mL in each case.

B10: Group 62 representative clone F083-349, Fab-PP-type antibody (Fab, V domains shown)
VH: QVQLVQSGAEVRKPGSSVKVSCKASGVIFIKFAISWVRQAPGQGLEWMGGIIPMFGTTNYAQKFQGRVTITADGSTNTVYMELSSLTSEDTAVYYCAKEEGYYYGSGPLDSWGQGTLVTVSS
VL: DIVMTQSPDFLSVSLGERVTINCKSSQTVLNRSNNKNYLAWYQKKPGQPPRLLLYWSSTRESGVPDRFSGSGSETDFALTITNLQAEDLAVYFCQQFYDMPVTFGGGTKLEIK
For B10, the Neutralizing activity (%) at 100 µg/ml in test [1] came out at 97.1%; in test [2] it was 40.2%; in test [3], 92.1%; in test [4], 13.7%. For the same molecule, the Neutralizing activity (%) at 250 µg/ml in test [1] is 91.3%; in test [2] it was 83.9%; in test [3] it was 92.1%; in test [4], -8.9%. The HI activity in test [3] and in test [5] was greater than 160 µg/mL in each case.
